In IntAct's records for PubMed 36577757:

What was measured:
mrtfa_human MRTFA [1] = molecular target: mrtfa_human MRTFA (UniProt Q969V6)
mrtfa_human MRTFA [2] = molecular target: mrtfa_human MRTFA (UniProt Q969V6); remark: listed apart in the source

UniProt Q969V6, sequence (Q969V6 whole entry): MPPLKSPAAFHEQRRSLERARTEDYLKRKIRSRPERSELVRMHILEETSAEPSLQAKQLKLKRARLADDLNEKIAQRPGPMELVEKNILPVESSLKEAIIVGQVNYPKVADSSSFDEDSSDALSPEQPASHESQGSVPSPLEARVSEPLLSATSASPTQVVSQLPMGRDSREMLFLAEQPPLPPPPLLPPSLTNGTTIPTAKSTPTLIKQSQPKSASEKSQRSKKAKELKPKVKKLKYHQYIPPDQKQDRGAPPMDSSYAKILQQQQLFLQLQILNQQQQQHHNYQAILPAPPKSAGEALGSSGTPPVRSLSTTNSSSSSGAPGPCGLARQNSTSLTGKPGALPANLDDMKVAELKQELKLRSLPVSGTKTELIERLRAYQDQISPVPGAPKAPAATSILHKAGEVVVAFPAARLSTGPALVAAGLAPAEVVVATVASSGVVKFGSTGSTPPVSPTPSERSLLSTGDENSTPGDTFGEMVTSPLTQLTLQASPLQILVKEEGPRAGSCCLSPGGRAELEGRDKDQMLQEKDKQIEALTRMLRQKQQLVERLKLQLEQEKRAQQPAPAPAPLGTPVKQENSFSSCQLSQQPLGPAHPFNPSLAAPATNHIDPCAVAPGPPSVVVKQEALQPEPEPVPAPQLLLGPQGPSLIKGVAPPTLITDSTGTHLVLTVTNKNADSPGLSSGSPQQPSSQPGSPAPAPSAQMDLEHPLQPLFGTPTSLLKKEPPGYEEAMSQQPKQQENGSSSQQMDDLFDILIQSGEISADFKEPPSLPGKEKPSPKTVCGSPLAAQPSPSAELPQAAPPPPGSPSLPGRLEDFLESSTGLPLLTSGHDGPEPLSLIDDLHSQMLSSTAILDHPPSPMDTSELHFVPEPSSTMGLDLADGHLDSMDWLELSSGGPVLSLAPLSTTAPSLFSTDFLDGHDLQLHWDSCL

## Filamin-A (Homo sapiens), P21333 S2152A
mrtfa_human MRTFA [1]
  effect of a mutation on the interaction: disrupting interaction strength
mrtfa_human MRTFA [2]
  effect of a mutation on the interaction: decreasing interaction strength
